Measured values from the supplement of paper PMC6757056.
± gives the standard deviation of the averaged measurements.

B1: library; a variant is named by its letters at N, in order (parent)
chain: GCUGUCACCGGUGCUUGGUACGUUAUAUUCAGCCGGUCUGAUGAGUCUNNNNNNAGACGAAACAGC

Columns and labels:
(6R,S)-folinic acid [1] = variants of: B1; assay: normalized RNA/DNA level without ligand (relative to sTRSVctl = 100) (log10 (% of sTRSVctl)); HEK293T overexpressing SLC46A1; higher = less ribozyme self-cleavage, higher mRNA level; conditions: without (6R,S)-folinic acid; ligand present: no
Method in brief: (§1)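 Ribozyme switch library plasmids with mCherry reporters (eGFP in certain ligand experiments) went into HEK293T cells at 4 µg per 6-well well. Where ligand was used, it was applied 1 h before transfection, and total RNA was extracted with EDTA 72 h later for reverse transcription, amplification, barcoding and sequencing. RNA level is the RNA-to-DNA read ratio normalized to a spiked-in non-cleaving sequence or to the leading sequences, then scaled and log-transformed. Scaling was ×100 with log10, the leading set comprised 25 sequences, and the cutoff was ≥100 DNA reads.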

(6R,S)-folinic acid [2] = variants of: B1; assay: normalized RNA/DNA level with ligand (relative to sTRSVctl = 100) (log10 (% of sTRSVctl)); HEK293T overexpressing SLC46A1; ligand concentration (+) RNA-Seq: 6 mM; higher = less ribozyme self-cleavage, higher mRNA level; conditions: with (6R,S)-folinic acid; ligand present: yes
Method in brief: as §1

Row | Variant | normalized RNA/DNA level without ligand (log10) ((6R,S)-folinic acid [1]) | normalized RNA/DNA level with ligand (log10) ((6R,S)-folinic acid [2])
1 | CCUGGG | 2.012 ± 0.01 | 2.017 ± 0.0021
2 | CCUGGC | 2.051 ± 0.013 | 2.05 ± 0.045
3 | CCUGGU | 2.044 ± 0.0037 | 2.088 ± 0.011
4 | CCUGGA | 2.046 ± 0.0022 | 2.068 ± 0.0024
5 | UCUGAU | 1.973 ± 0.008 | 2 ± 0.046
6 | UCUGAG | 1.745 ± 0.011 | 1.98 ± 0.03
7 | AGAAAC | 2.0013 ± 0.00088 | 2.01 ± 0.026
8 | AGAAAA | 1.984 ± 0.0076 | 2 ± 0.034
9 | AGAAAG | 1.901 ± 0.0062 | 2.01 ± 0.022
10 | AGAAAU | 2.026 ± 0.0034 | 2.01 ± 0.044
11 | CGAAAU | 1.942 ± 0.0046 | 1.967 ± 0.013
12 | CGAAAC | 1.985 ± 0.0043 | 1.99 ± 0.04
13 | GCUUCC | 2.029 ± 0.0087 | 2.04 ± 0.034
14 | GCUUCU | 2.0037 ± 0.0006 | 2.01 ± 0.048
15 | GCUUCG | 2.024 ± 0.015 | 2.02 ± 0.025
16 | CCUUAC | 2.02 ± 0.027 | 2.056 ± 0.014
17 | CCUUAG | 1.934 ± 0.015 | 1.96 ± 0.046
18 | CCUUAA | 2.01 ± 0.0061 | 2.003 ± 0.013
19 | CCUGCC | 2.058 ± 0.0075 | 2 ± 0.068
20 | CCUGCG | 2.01 ± 0.016 | 2.033 ± 0.02
21 | CCUGCA | 2.047 ± 0.0035 | 2.059 ± 0.0067
22 | GGAAGC | 1.9092 ± 0.0019 | 1.99 ± 0.044
23 | UCUUGA | 1.987 ± 0.0069 | 2.025 ± 0.006
24 | UCUUGU | 1.976 ± 0.014 | 2.02 ± 0.051

Row | Variant | normalized RNA/DNA level without ligand (log10) ((6R,S)-folinic acid [1]) | normalized RNA/DNA level with ligand (log10) ((6R,S)-folinic acid [2])
25 | GCUUUU | 2.01 ± 0.047 | 2.02 ± 0.035
26 | GCUUUC | 2.0144 ± 0.0002 | 2.01 ± 0.029
27 | GCUUUG | 1.995 ± 0.015 | 2.02 ± 0.053
28 | UCUUUC | 2.017 ± 0.0074 | 1.996 ± 0.0066
29 | UCUUUA | 2.001 ± 0.0056 | 2 ± 0.015
30 | UCUUUG | 1.81 ± 0.031 | 1.952 ± 0.019
31 | AGAAGA | 1.949 ± 0.0067 | 2.02 ± 0.025
32 | AGAAGC | 2.004 ± 0.0023 | 2.049 ± 0.016
33 | CCUUCU | 2.01 ± 0.024 | 2.02 ± 0.041
34 | CCUUCA | 2.07 ± 0.021 | 2.04 ± 0.079
35 | CCUUCC | 2.067 ± 0.019 | 2.01 ± 0.024
36 | CCUUCG | 2.017 ± 0.019 | 2.045 ± 0.012
37 | CCUUGC | 2.004 ± 0.0087 | 2.05 ± 0.039
38 | CCUUGG | 2.047 ± 0.016 | 2.01 ± 0.022
39 | CCUUGA | 2.017 ± 0.0066 | 2.03 ± 0.027
40 | CCUUGU | 2.01 ± 0.04 | 2.005 ± 0.013
41 | UCUUCU | 2.064 ± 0.0051 | 2.095 ± 0.011
42 | UCUUCG | 1.91 ± 0.02 | 2.0469 ± 0.0016
43 | UCUUCA | 2.028 ± 0.0079 | 2.04 ± 0.046
44 | UCUUCC | 2.026 ± 0.018 | 2.043 ± 0.018
45 | ACUGUC | 2.08 ± 0.024 | 2.04 ± 0.059
46 | ACUGUU | 2 ± 0.02 | 2.01 ± 0.037
47 | ACUGUA | 1.9633 ± 7.1e-05 | 2.026 ± 0.014
48 | UGAAGC | 1.964 ± 0.018 | 2 ± 0.021

Row | Variant | normalized RNA/DNA level without ligand (log10) ((6R,S)-folinic acid [1]) | normalized RNA/DNA level with ligand (log10) ((6R,S)-folinic acid [2])
49 | GGAAAU | 1.98 ± 0.025 | 2.04 ± 0.027
50 | GCUUAU | 1.942 ± 0.015 | 2.003 ± 0.006
51 | GCUUAG | 1.9687 ± 0.00031 | 2.015 ± 0.013
52 | CCUUUU | 2.031 ± 0.0026 | 2 ± 0.027
53 | CCUUUG | 2.039 ± 0.017 | 2.01 ± 0.067
54 | CCUUUC | 2.062 ± 0.0044 | 2.01 ± 0.053
55 | GCUGCG | 2.002 ± 0.0047 | 2.05 ± 0.029
56 | GCUGCU | 2.04 ± 0.027 | 2.055 ± 0.018
57 | GCUGCA | 2.01 ± 0.022 | 2.03 ± 0.047
58 | GCUGAG | 1.974 ± 0.013 | 2.04 ± 0.039
59 | CCUGUC | 2.022 ± 0.0031 | 2.01 ± 0.041
60 | CCUGUG | 2.0488 ± 0.00073 | 2.03 ± 0.038
61 | CCUGUA | 2.018 ± 0.012 | 2.04 ± 0.022
62 | CCUGUU | 2.02 ± 0.021 | 2.015 ± 0.014
63 | ACUUGC | 2.036 ± 0.0029 | 2.03 ± 0.03
64 | ACUUGU | 2.062 ± 0.011 | 2.064 ± 0.013
65 | ACUUGA | 1.9759 ± 0.0013 | 2.03 ± 0.041
66 | UCUGUC | 2.056 ± 0.0093 | 2.07 ± 0.075
67 | UCUGUG | 1.773 ± 0.0022 | 2 ± 0.049
68 | UCUGUA | 1.961 ± 0.0025 | 2.04 ± 0.026
69 | UCUGGU | 1.9654 ± 0.0015 | 2.02 ± 0.032
70 | UCUGGC | 2.03 ± 0.022 | 2.0358 ± 0.00061
71 | UCUUAC | 2.003 ± 0.0077 | 1.998 ± 0.0031
72 | UCUUAA | 1.962 ± 0.011 | 2.002 ± 0.0044

Row | Variant | normalized RNA/DNA level without ligand (log10) ((6R,S)-folinic acid [1]) | normalized RNA/DNA level with ligand (log10) ((6R,S)-folinic acid [2])
73 | UCUUAU | 2 ± 0.028 | 2 ± 0.013
74 | CGAAGC | 2.02 ± 0.033 | 2.04 ± 0.042
75 | CGAAGA | 1.986 ± 0.0023 | 2.01 ± 0.049
76 | ACUGAU | 1.9488 ± 0.0011 | 2 ± 0.031
77 | UGAACC | 2.011 ± 0.0035 | 2 ± 0.031
78 | UGAACA | 1.9795 ± 0.00092 | 2.01 ± 0.037
79 | GCUUGA | 1.999 ± 0.0031 | 2.024 ± 0.018
80 | GCUUGU | 2.004 ± 0.017 | 2.04 ± 0.058
81 | GCUUGC | 2.052 ± 0.01 | 2.01 ± 0.022
82 | GCUUGG | 1.932 ± 0.015 | 2.02 ± 0.028
83 | ACUGCA | 2.02 ± 0.013 | 2.05 ± 0.009
84 | ACUGCU | 2.0021 ± 0.002 | 2.008 ± 0.015
85 | ACUGCC | 2.06 ± 0.024 | 2.06 ± 0.039
86 | ACUGCG | 1.902 ± 0.011 | 2.013 ± 0.013
87 | ACUUUU | 2.037 ± 0.012 | 2 ± 0.038
88 | ACUUUG | 1.94 ± 0.043 | 2.001 ± 0.015
89 | ACUUUC | 2.041 ± 0.0054 | 2.05 ± 0.038
90 | GCUGGG | 1.979 ± 0.0048 | 2.01 ± 0.021
91 | GCUGGC | 1.964 ± 0.017 | 1.916 ± 0.0083
92 | GCUGGA | 2.06 ± 0.0022 | 2.07 ± 0.046
93 | AGAACG | 1.954 ± 0.0051 | 2.018 ± 0.016
94 | AGAACA | 2.007 ± 0.0027 | 2.02 ± 0.045
95 | AGAACU | 2.036 ± 0.0042 | 2.075 ± 0.0036
96 | AGAACC | 2.02 ± 0.0077 | 2.01 ± 0.049

Row | Variant | normalized RNA/DNA level without ligand (log10) ((6R,S)-folinic acid [1]) | normalized RNA/DNA level with ligand (log10) ((6R,S)-folinic acid [2])
97 | GCUGUC | 2.0466 ± 0.00088 | 2.02 ± 0.026
98 | GCUGUA | 2.019 ± 0.018 | 2.04 ± 0.033
99 | GCUGUG | 2.03 ± 0.028 | 2.04 ± 0.055
100 | GGAACA | 2.0061 ± 0.00047 | 2.02 ± 0.043
101 | GGAACG | 2 ± 0.027 | 2.03 ± 0.032
102 | GGAACU | 2.035 ± 0.01 | 2.029 ± 0.016
103 | GGAACC | 2.036 ± 0.01 | 2.04 ± 0.06
104 | CGAACG | 2.0268 ± 0.0006 | 2.024 ± 0.0057
105 | CGAACU | 2 ± 0.023 | 2 ± 0.05
106 | UCUGCA | 1.9967 ± 0.0014 | 2.06 ± 0.022
107 | UCUGCU | 2.069 ± 0.0056 | 2.07 ± 0.0045
108 | UCUGCG | 1.826 ± 0.008 | 2.03 ± 0.034
109 | UCUGCC | 1.981 ± 0.0055 | 2.02 ± 0.025
110 | ACUUCA | 2.01 ± 0.03 | 2 ± 0.04
111 | ACUUCU | 2.031 ± 0.0021 | 1.99 ± 0.059
112 | ACUUCC | 2.058 ± 0.009 | 2.0589 ± 0.002
113 | ACUUCG | 1.968 ± 0.0047 | 2.02 ± 0.029
114 | ACUGGC | 2.045 ± 0.016 | 2.005 ± 0.016
115 | ACUGGA | 1.943 ± 0.0043 | 2 ± 0.058
116 | ACUGGU | 1.952 ± 0.016 | 2 ± 0.07
